Laboratory results published in patent US12139531B2, “Compositions and methods useful in promoting milk production” (The Regents of the University of California, priority 2019, dated 2024).

What was measured:
[1] = target: T1, ROBO2 (Homo sapiens, UniProt Q9HCK4); experiment: ECD binding assay on Cos7 cells overexpressing Robo2; conditions: Cos7 cells overexpressing Robo2, sodium azide, 1H incubation, immunostaining
T1 construct: expressed in transfected cells; host or cells: Cos7
T1 sequence (Q9HCK4 22-1378): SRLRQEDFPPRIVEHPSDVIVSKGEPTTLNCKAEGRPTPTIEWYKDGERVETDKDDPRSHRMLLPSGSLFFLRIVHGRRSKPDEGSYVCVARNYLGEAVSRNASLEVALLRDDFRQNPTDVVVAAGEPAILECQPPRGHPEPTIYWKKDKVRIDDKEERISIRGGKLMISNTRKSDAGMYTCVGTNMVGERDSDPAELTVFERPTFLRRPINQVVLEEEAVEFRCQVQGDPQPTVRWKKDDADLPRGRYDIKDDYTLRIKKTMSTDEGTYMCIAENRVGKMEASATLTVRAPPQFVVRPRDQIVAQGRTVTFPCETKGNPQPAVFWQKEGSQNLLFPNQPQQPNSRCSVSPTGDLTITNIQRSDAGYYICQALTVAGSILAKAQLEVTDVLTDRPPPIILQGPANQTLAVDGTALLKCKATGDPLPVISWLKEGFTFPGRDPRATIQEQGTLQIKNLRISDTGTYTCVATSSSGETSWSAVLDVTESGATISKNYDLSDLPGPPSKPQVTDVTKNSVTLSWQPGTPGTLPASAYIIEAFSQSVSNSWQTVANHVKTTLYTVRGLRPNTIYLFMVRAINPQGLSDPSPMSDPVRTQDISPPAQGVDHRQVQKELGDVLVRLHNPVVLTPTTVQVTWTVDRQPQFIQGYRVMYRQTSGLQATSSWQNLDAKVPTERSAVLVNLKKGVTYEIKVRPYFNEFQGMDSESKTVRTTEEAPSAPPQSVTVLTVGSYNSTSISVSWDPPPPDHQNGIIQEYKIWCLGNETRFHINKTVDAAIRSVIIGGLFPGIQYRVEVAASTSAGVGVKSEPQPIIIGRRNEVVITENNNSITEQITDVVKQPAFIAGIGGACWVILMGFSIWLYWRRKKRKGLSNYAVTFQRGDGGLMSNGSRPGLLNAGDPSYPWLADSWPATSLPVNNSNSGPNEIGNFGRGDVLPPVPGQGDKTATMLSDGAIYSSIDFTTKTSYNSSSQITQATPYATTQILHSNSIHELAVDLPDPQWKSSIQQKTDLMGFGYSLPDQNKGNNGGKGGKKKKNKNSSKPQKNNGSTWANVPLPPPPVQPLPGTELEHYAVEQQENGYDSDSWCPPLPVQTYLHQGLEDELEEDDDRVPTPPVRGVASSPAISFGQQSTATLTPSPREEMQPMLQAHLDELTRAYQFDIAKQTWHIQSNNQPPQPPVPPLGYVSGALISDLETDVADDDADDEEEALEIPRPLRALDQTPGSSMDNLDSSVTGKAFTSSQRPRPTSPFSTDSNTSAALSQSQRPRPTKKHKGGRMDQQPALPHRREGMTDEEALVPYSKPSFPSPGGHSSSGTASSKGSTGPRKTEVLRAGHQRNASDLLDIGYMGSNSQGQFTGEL
Procedure: Soluble ROBO1 ECD fragments ROBO1-Ig2 and ROBO1-Ig5 generated in the presence of heparin were used in a dome assay. […] Because treatment with heparin had only a modest positive effect on ROBO1 ECD production and a deleterious effect on their function (FIG. 6C, E), the use of heparin to generate soluble ROBO1 ECD fragments was not pursued. The ability of a ROBO1 ECD fragment to bind ROBO2 receptors was tested by overexpressing Robo2 in Cos7 cells, treating cells with sodium azide to prevent protein internalization and then incubating cells with ROBO1-Ecto-HA 1H prior to fixation and immunostaining.

[2] = target: T2, DCC (Homo sapiens, UniProt P43146); experiment: ECD binding assay on cells overexpressing DCC
T2 construct: expressed in transfected cells
T2 sequence (P43146 26-1447, species assumed): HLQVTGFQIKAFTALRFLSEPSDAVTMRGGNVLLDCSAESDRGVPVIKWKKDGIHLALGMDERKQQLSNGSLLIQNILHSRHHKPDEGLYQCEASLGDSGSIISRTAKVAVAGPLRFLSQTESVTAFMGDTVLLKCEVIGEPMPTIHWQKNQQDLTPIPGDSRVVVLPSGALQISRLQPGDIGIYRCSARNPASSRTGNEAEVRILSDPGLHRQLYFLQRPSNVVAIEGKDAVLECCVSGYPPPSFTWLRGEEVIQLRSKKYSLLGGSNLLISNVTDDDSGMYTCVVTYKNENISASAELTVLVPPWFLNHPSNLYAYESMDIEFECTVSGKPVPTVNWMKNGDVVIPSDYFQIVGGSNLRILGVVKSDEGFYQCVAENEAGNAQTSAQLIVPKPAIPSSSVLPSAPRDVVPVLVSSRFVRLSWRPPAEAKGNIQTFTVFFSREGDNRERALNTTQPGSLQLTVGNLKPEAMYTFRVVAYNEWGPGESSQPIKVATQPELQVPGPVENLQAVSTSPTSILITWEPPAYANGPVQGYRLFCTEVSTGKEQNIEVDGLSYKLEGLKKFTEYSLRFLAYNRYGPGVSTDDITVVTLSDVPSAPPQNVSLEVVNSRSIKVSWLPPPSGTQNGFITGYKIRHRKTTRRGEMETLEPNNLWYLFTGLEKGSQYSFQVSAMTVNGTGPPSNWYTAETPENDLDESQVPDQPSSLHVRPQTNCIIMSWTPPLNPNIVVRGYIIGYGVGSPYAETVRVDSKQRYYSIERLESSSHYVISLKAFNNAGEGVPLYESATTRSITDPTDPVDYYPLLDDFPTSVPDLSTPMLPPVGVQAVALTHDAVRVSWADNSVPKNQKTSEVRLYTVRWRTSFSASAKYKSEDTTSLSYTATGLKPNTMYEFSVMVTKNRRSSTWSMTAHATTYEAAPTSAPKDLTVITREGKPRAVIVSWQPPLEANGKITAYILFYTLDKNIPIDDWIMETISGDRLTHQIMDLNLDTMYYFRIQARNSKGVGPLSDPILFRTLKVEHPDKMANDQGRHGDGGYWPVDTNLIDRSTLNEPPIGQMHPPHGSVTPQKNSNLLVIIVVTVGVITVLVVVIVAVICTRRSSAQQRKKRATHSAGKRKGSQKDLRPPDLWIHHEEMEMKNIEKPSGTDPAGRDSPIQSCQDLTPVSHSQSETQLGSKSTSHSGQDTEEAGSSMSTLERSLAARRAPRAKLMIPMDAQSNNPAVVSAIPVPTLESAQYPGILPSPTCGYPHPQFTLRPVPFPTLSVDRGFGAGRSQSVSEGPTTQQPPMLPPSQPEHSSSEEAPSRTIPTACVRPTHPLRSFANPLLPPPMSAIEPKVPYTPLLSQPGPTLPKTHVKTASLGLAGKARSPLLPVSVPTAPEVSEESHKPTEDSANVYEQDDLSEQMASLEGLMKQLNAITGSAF
Procedure: FIG. 6: ROBO1 extracellular domains. (A) Cartoon showing domain structure of the ROBO1 extracellular domain (ECD) panel (B) Western blot of ROBO1 ECDs and control DCC ECDs in lysates and conditioned media of HEK cells overexpressing plasmid constructs. (C) Dot blot assay of media (left) and quantification (right) of ROBO1-Ig5 secretion from HEK cells overexpressing Robo-Ig5 in the absence and presence of heparin (300 ng/ml). […] (F) ECD binding assay using ROBO1-Ecto and cells overexpressing ROBO2 (top, green) and cells overexpressing DCC (bottom, green). ROBO1-Ecto-HA (red) binds to ROBO2, but not to DCC.

B1: ROBO1-Ecto-HA: ROBO1-Ecto fused to HA (hemagglutinin) tag (protein)
chain: SRLRQEDFPPRIVEHPSDLIVSKGEPATLNCKAEGRPTPTIEWYKGGERVETDKDDPRSHRMLLPSGSLFFLRIVHGRKSRPDEGVYICVARNYLGEAVSHNASLEVAILRDDFRQNPSDVMVAVGEPAVMECQPPRGHPEPTISWKKDGSPLDDKDERITIRGGKLMITYTRKSDAGKYVCVGTNMVGERESEVAELTVLERPSFVKRPSNLAVTVDDSAEFKCEARGDPVPTVRWRKDDGELPKSRYEIRDDHTLKIRKVTAGDMGSYTCVAENMVGKAEASATLTVQEPPHFVVKPRDQVVALGRTVTFQCEATGNPQPAIFWRREGSQNLLFSYQPPQSSSRFSVSQTGDLTVTNVQRSDVGYYICQTLNVAGSIITKAYLEVTDVIADRPPPVIRQGPVNQTVAVDGTLTLSCVATGSPVPTILWRKDGVLVSTQDSRIKQLESGVLQIRYAKLGDTGRYTCTASTPSGEATWSAYIEVQEFGVPVQPPRPTDPNLIPSAPSKPEVTDVSKNTVTLLWQPNLNSGATPTSYIIEAFSHASGSSWQTVAENVKTETFAIKGLKPNAIYLFLVRAANAYGISDPSQISDPVKTQDVPPTTQGVDHKQVQRELGNVVLHLHNPTILSSSSVEVHWTVDQQSQYIQGYKILYRPSGASHGESEWLVFEVRTPTKNSVVIPDLRKGVNYEIKARPFFNEFQGADSEIKFAKTLEEAPSAPPRSVTVSKNDGNGTAILVTWQPPPEDTQNGMVQEYKVWCLGNETRYHINKTVDGSTFSVVIPSLVPGIRYSVEVAASTGAGPGVKSEPQF
modifications: left off: small tags and cut ends
notes: ROBO1-Ecto fused to HA (hemagglutinin) tag
With B1 the “binding to ROBO2” value [1] was “binds” and the “binding to DCC” value [2] was “not to DCC”.
